For assay [1], the target named is human C3aR with C-terminal SmBiT (hC3aR) (human) (UniProt Q16581).
Assay [2] deals with human C5aR1 with C-terminal SmBiT (hC5aR1-SmBiT) (human) (UniProt P21730).
In assay [3] the target is human C5aR1-Rluc8 (human) (UniProt P21730).
Assay [4] deals with mouse C5aR2, purified from Sf9 cells (mC5aR2) (not stated | mouse) (UniProt P08173). As to the kind of experiment: cryo-EM structure.
Assay [5] shares this target. As to the kind of experiment: SEC.
The target of assay [6] is T1, mouse C5aR1, purified (mC5aR1) for cryo-EM and HDX-MS (mouse, UniProt P30993 1-351).
T1 sequence: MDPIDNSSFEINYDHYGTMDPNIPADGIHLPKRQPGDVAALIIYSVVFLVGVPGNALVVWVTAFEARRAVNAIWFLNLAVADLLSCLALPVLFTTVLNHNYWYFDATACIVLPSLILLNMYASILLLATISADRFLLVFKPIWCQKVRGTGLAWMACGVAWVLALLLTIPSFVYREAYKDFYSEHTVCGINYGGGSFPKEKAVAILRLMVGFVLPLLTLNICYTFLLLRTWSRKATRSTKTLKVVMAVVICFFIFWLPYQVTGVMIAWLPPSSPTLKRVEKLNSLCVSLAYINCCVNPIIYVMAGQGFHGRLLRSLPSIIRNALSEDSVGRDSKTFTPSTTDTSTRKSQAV
As to the kind of experiment: cryo-EM structure.

Sequence of human C3aR with C-terminal SmBiT (hC3aR) (human) (Q16581 whole entry): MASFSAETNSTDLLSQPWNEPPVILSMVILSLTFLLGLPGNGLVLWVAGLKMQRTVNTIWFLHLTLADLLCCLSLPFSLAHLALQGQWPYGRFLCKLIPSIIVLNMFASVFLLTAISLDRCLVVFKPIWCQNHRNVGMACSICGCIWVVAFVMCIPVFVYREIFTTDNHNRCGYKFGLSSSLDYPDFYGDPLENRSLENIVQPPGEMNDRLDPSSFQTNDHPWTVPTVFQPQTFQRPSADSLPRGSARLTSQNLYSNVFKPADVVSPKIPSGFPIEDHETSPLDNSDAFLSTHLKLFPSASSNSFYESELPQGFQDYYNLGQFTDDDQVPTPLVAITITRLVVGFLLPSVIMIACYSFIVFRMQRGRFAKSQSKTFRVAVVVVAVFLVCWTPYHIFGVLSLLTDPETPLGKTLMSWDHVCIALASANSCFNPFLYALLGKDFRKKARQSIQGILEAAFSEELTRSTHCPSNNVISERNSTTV
Sequence of human C5aR1-Rluc8 (human) (P21730 whole entry): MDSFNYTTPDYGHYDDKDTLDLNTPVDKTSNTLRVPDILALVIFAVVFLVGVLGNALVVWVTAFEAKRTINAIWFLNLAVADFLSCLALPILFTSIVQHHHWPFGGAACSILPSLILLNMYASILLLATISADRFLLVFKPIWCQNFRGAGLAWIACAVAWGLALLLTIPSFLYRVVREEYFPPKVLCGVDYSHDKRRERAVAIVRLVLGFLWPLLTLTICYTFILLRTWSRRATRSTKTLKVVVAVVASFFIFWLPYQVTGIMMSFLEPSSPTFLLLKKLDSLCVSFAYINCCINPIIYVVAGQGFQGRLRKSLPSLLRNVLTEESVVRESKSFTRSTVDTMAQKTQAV
Sequence of human C5aR1 with C-terminal SmBiT (hC5aR1-SmBiT) (human) (P21730 whole entry): as above

Take “R8Y, [Tyr1,Tyr8]BM2020-8, C5aR2-selective peptide agonist”: in assay [1], the activation of C3aR (Figure S10D and Table S1) is > 10 µM. In assay [2], the activation of C5aR1 (Figure S10D and Table S1) is > 10 µM.
[Tyr8]BM2020-8 peptide: in assay [3], the efficacy at C5aR1 relative to C5a; read-out not given worked out at 41%.
Regarding “mouse C5aR2, purified from Sf9 cells (mC5aR2) (from UniProt P08173 2-23) (receptor)”, the stoichiometry N in assay [4] and in assay [5] was 2 in each case.

B1: mouse complement anaphylatoxin C5a, recombinant (mC5a) (ligand)
chain: NLHLLRQKIEEQAAKYKHSVPKKCCYDGARVNFYETCEERVARVTIGPLCIRAFNECCTIANKIRKESPHKPVQLGR
As for B1, the binding result in assay [6] is recorded as “binds”.

For the origin of these results see doi:10.1101/2025.11.01.685996 (bioRxiv, 2025).
